Results as given in PMC6077149 (Molecular Therapy. Methods & Clinical Development, 2018).

Columns and labels:
[1] = molecular target: Fc (huIgG1-Fc fused to the Avi tag) (human); test: SEC
[2] = molecular target: the molecule itself; test: SEC
[3] = molecular target: DARPin 2B7 fused to the measles virus H protein (DARPin-H); test: flow cytometry on cells
[4] = molecular target: DARPin SB4 fused to the measles virus H protein (DARPin-H); test: flow cytometry on cells
[5] = molecular target: four DARPins (SD8, SK14, 2K19, 2B7) and the scFv Fab7; test: flow cytometry on cells

Sequence of Fc (huIgG1-Fc fused to the Avi tag) (domain or fragment) (P01857 1-350): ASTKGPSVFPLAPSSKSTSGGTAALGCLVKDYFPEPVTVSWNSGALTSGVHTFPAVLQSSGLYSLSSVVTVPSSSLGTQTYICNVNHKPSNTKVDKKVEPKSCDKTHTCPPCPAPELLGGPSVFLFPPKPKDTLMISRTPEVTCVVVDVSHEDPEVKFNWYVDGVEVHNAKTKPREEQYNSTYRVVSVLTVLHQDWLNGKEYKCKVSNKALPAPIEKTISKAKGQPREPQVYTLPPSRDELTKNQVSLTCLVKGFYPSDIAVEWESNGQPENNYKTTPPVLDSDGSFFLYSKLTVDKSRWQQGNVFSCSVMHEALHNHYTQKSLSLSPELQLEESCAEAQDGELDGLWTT

Row | Molecule | stoichiometry N [1] | stoichiometry N [2] | Kd [3] | Kd [4] | Kd [5]
1 | Fc (huIgG1-Fc fused to the Avi tag) (domain or fragment) | 2 |  |  |  | 
2 | GluA4-Fc (amino-terminal domain of GluA4 fused to huIgG1-Fc and an Avi tag) (Fc fusion, biotin on the Avi tag in the biotinylated form (roughly 76% biotinylated)) AFPSSVQIGGLFIRNTDQEYTAFRLAIFLHNTSPNASEAPFNLVPHVDNIETANSFAVTNAFCSQYSRGVFAIFGLYDKRSVHTLTSFCSALHISLITPSFPTEGESQFVLQLRPSLRGALLSLLDHYEWNCFVFLYDTDRGYSILQAIMEKAGQNGWHVSAICVENFNDVSYRQLLEELDRRQEKKFVIDCEIERLQNILEQIVSVGKHVKGYHYIIANLGFKDISLERFIHGGANVTGFQLVDFNTPMVTKLMDRWKKLDQREYPGSETPPKYTSALTYDGVLVMAETFRSLRRQKIDISRRGNAGDCLANPAAPWGQGIDMERTLKQVRIQGLTGNVQFDHYGRRVNYTMDVFELKSTGPRKVGYWNDMDKLVLIQD |  | 4 | 8.4 nM | 19 nM | 1.6 to 3.7 nM
